This note sets out measurements from PMC8866402.

For assay [1], the target named is recombinant mouse TGF-β1 (mouse).
Assay [2] concerns the target recombinant human TGF-β1 produced in-house (human).

Chain of recombinant human TGF-β1 produced in-house (human) (P01137 279-390): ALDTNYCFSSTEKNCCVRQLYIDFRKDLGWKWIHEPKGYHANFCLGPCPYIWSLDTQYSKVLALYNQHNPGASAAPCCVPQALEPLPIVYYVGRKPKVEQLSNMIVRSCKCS
Chain of recombinant mouse TGF-β1 (mouse) (P04202 279-390): as the sequence (P01137 279-390) above, with A75S counted along it

B1: strep-tag-fortilin (recombinant human fortilin with an N-terminal Strep-tag II) (natural protein)
chain: MIIYRDLISHDEMFSDIYKIREIADGLCLEVEGKMVSRTEGNIDDSLIGGNASAEGPEGEGTESTVITGVDIVMNHHLQETSFTKEAYKKYIKDYMKSIKGKLEEQRPERVKPFMTGAAEQIKHILANFKNYQFFIGENMNPDGMVALLDYREDGVTPYMIFFKDGLEMEKC
Consider B1, for which the SEAP reporter (SBE) activity of MFB-F11 cells stimulated with 156 pM TGF-β1 pre-incubated with 0, 19.5 or 195 nM strep-tag-fortilin; value given is at 195 nM fortilin in assay [1] stood at 6.3 A.U. Also, in assay [2], the SBE-luciferase activity (firefly/Renilla) in HEK293 cells treated with TGF-β1 (1 nM) without vs with strep-tag-fortilin (3 nM); value given is with fortilin was 5.4 A.U.
